Results: the supplement of paper PMC6757056
± gives the standard deviation of the averaged measurements.

B1: library; a variant is named by its letters at N, in order (parent)
chain: GCUGUCACCGGUGUAUUACCCUAGUGGUCGACCGGUCUGAUGAGUCUNNNNNNAGACGAAACAGC

Assays:
hypoxanthine [1] = variants of: B1; experiment: FACS-Seq fitted mean relative fluorescence mCherry/BFP without ligand (log10 relative fluorescence); ligand: hypoxanthine (xanthine aptamer); higher = higher reporter protein expression; conditions: HEK293T, ligand present: no
Procedure, shortened: (§1)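 Fluorescence comes from a normal fit to bin counts, normalized against controls. HEK293T libraries lentivirally given a ribozyme-switch mCherry reporter and an EF1α-BFP marker were enriched, incubated 48 h with or without ligand, and sorted by mCherry/BFP into 6 bins. Bin genomic DNA was PCR-amplified, barcoded and sequenced on MiSeq. The log10(mCherry/BFP) mean was scaled to five spiked-in control ribozymes.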

hypoxanthine [2] = variants of: B1; experiment: normalized RNA/DNA level with ligand (relative to sTRSVctl = 100) (log10 (% of sTRSVctl)); ligand: hypoxanthine (xanthine aptamer); higher = less ribozyme self-cleavage, higher mRNA level; conditions: ligand concentration (+) RNA-Seq: 5 mM, HEK293T, reporter: mCherry (pCS4076), ligand present: yes
Procedure, shortened: (§2)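 Total RNA, extracted with EDTA 72 h after HEK293T cells were transfected with 4 µg per 6-well well of reporter-linked ribozyme switch library plasmids, was reverse-transcribed, amplified, barcoded and sequenced. Ligand, if used, was added 1 h before transfection. RNA level was derived from RNA reads divided by DNA reads and normalized to a spiked-in non-cleaving sequence or to the top sequences. This was multiplied by 100 and log10-transformed, with the top set of 25 sequences and a ≥100 DNA read minimum.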

hypoxanthine [3] = variants of: B1; experiment: normalized RNA/DNA level without ligand (relative to sTRSVctl = 100) (log10 (% of sTRSVctl)); ligand: hypoxanthine (xanthine aptamer); higher = less ribozyme self-cleavage, higher mRNA level; conditions: HEK293T, reporter: mCherry (pCS4076), ligand present: no
Procedure, shortened: as §2

hypoxanthine [4] = variants of: B1; experiment: FACS-Seq fitted mean relative fluorescence mCherry/BFP with ligand (log10 relative fluorescence); ligand: hypoxanthine (xanthine aptamer); ligand concentration (+) FACS-Seq: 5 mM; higher = higher reporter protein expression; conditions: HEK293T, ligand present: yes
Procedure, shortened: as §1

Row | Variant | FACS-Seq fitted mean (log10) (hypoxanthine [1]) | normalized RNA/DNA level with ligand (log10) (hypoxanthine [2]) | normalized RNA/DNA level without ligand (log10) (hypoxanthine [3]) | FACS-Seq fitted mean (log10) (hypoxanthine [4])
1 | GGCCUG | 0.145 ± 0.02 | 1.99 ± 0.062 | 1.809 ± 0.013 | 0.239 ± 0.046
2 | UGGAAU | -0.0639 ± 0.013 | 1.887 ± 0.0035 | 1.659 ± 0.0056 | 0.205 ± 0.02
3 | GGCAAU | -0.272 ± 0.047 | 1.92 ± 0.04 | 1.86 ± 0.024 | -0.0445 ± 0.018
4 | GGCAAG | 0.564 ± 0.072 | 1.88 ± 0.028 | 1.47 ± 0.022 | 0.712 ± 0.075
5 | GGCAAA | -0.106 ± 0.017 | 1.9638 ± 0.0011 | 1.83 ± 0.037 | -0.0498 ± 0.0022
6 | GGCAAC | -0.242 ± 0.05 | 1.947 ± 0.0067 | 1.86 ± 0.024 | -0.0947 ± 0.011
7 | CGCUAG | 0.118 ± 0.0022 | 1.89 ± 0.063 | 1.79 ± 0.051 | 0.183 ± 0.14
8 | AGAUAA | 0.265 ± 0.036 | 1.88 ± 0.022 | 1.75 ± 0.042 | -0.0706 ± 0.047
9 | AGAUAC | 0.757 ± 0.025 | 1.91 ± 0.052 | 1.74 ± 0.029 | 0.699 ± 0.065
10 | UGCCGG | -0.14 ± 0.0069 | 1.938 ± 0.0072 | 1.71 ± 0.068 | -0.119 ± 0.14
11 | AGCGAG | 0.352 ± 0.055 | 1.8 ± 0.031 | 1.36 ± 0.062 | 0.443 ± 0.043
12 | AGCGAC | -0.228 ± 0.049 | 1.93 ± 0.043 | 1.787 ± 0.00037 | 0.298 ± 0.021
13 | AGCGAA | 0.534 ± 0.068 | 1.924 ± 0.017 | 1.6852 ± 0.00025 | 0.62 ± 0.014
14 | AGGAAG | -0.0152 ± 0.00091 | 1.63 ± 0.038 | 1.11 ± 0.055 | 0.161 ± 0.026
15 | AGGAAC | 0.573 ± 0.093 | 1.91 ± 0.042 | 1.66 ± 0.039 | 0.568 ± 0.099
16 | AGGAAA | 0.102 ± 0.031 | 1.87 ± 0.019 | 1.56 ± 0.037 | 0.42 ± 0.058
17 | GGCGAU | 0.679 ± 0.071 | 1.97 ± 0.062 | 1.9 ± 0.063 | 0.587 ± 0.0063
18 | GGAUCG | 0.142 ± 0.037 | 1.95 ± 0.053 | 1.6404 ± 0.0014 | 0.517 ± 0.05
19 | CGGAAA | 0.32 ± 0.016 | 1.87 ± 0.025 | 1.43 ± 0.051 | 0.587 ± 0.016
20 | CGGAAG | 0.266 ± 0.007 | 1.905 ± 0.011 | 1.734 ± 0.0046 | 0.361 ± 0.062
21 | CGGAAU | 0.0719 ± 0.0065 | 1.81 ± 0.052 | 1.42 ± 0.016 | 0.548 ± 0.059
22 | AGCAUA | 0.318 ± 0.075 | 1.9 ± 0.044 | 1.82 ± 0.02 | 0.286 ± 0.19
23 | AGCAUG | 0.201 ± 0.012 | 1.87 ± 0.079 | 1.4892 ± 0.001 | -0.275 ± 0.19
24 | AGCAUU | -0.328 ± 0.0053 | 1.92 ± 0.065 | 1.86 ± 0.057 | -0.19 ± 0.0097

Row | Variant | FACS-Seq fitted mean (log10) (hypoxanthine [1]) | normalized RNA/DNA level with ligand (log10) (hypoxanthine [2]) | normalized RNA/DNA level without ligand (log10) (hypoxanthine [3]) | FACS-Seq fitted mean (log10) (hypoxanthine [4])
25 | AGCUAC | -0.583 ± 0.06 | 1.96 ± 0.058 | 1.778 ± 0.0088 | -0.175 ± 0.051
26 | UGCGUA | 0.287 ± 0.015 | 1.92 ± 0.05 | 1.86 ± 0.032 | 0.413 ± 0.031
27 | UGCUGA | 0.117 ± 0.0063 | 1.92 ± 0.013 | 1.68 ± 0.021 | 0.0171 ± 0.11
28 | UGAUGA | 0.599 ± 0.053 | 1.906 ± 0.0054 | 1.58 ± 0.035 | 0.575 ± 0.14
29 | GGAGCG | 0.171 ± 0.034 | 1.93 ± 0.043 | 1.49 ± 0.04 | 0.456 ± 0.023
30 | GGAGCU | 0.211 ± 0.041 | 1.956 ± 0.0072 | 1.96 ± 0.044 | -0.117 ± 0.033
31 | GGAGCA | 0.654 ± 0.037 | 1.946 ± 0.0077 | 1.783 ± 0.0088 | 0.686 ± 0.1
32 | AGCUCG | 0.177 ± 0.0048 | 1.931 ± 0.0082 | 1.63 ± 0.11 | 0.448 ± 0.0069
33 | GGAUAA | 0.5354 ± 0.0025 | 1.9 ± 0.025 | 1.74 ± 0.024 | 0.552 ± 0.016
34 | GGAUAC | 0.616 ± 0.019 | 1.93 ± 0.026 | 1.73 ± 0.042 | 0.623 ± 0.084
35 | GGAUAG | 0.188 ± 0.013 | 1.83 ± 0.028 | 1.39 ± 0.049 | 0.508 ± 0.041
36 | AGCUGA | 0.203 ± 0.08 | 1.91 ± 0.043 | 1.74 ± 0.067 | 0.0306 ± 0.017
37 | AGCUGG | -0.403 ± 0.022 | 1.91 ± 0.069 | 1.57 ± 0.035 | -0.291 ± 0.096
38 | AGCUGC | 0.448 ± 0.0077 | 2 ± 0.035 | 1.87 ± 0.076 | 0.755 ± 0.036
39 | AGCCAG | 0.512 ± 0.025 | 1.89 ± 0.024 | 1.591 ± 0.007 | 0.71 ± 0.041
40 | AGCCAU | -0.282 ± 0.012 | 1.92 ± 0.052 | 1.78 ± 0.027 | 0.15 ± 0.033
41 | AGCCAA | 0.57 ± 0.1 | 1.888 ± 0.017 | 1.8 ± 0.028 | 0.566 ± 0.067
42 | AGCACC | -0.563 ± 0.05 | 1.98 ± 0.063 | 1.844 ± 0.0071 | -0.00735 ± 0.0039
43 | AGCACA | -0.251 ± 0.011 | 1.92 ± 0.044 | 1.787 ± 0.0038 | -0.513 ± 0.043
44 | AGCACG | 0.385 ± 0.023 | 1.87 ± 0.055 | 1.44 ± 0.085 | 0.609 ± 0.062
45 | CGAUGG | 0.217 ± 0.024 | 1.89 ± 0.029 | 1.42 ± 0.087 | 0.628 ± 0.045
46 | GGGAAG | -0.183 ± 0.0054 | 1.64 ± 0.023 | 1.18 ± 0.014 | 0.325 ± 0.0034
47 | GGGAAU | 0.489 ± 0.043 | 1.93 ± 0.045 | 1.64 ± 0.021 | 0.654 ± 0.069
48 | GGGAAA | 0.227 ± 0.0031 | 1.867 ± 0.0029 | 1.57 ± 0.028 | 0.428 ± 0.03

Row | Variant | FACS-Seq fitted mean (log10) (hypoxanthine [1]) | normalized RNA/DNA level with ligand (log10) (hypoxanthine [2]) | normalized RNA/DNA level without ligand (log10) (hypoxanthine [3]) | FACS-Seq fitted mean (log10) (hypoxanthine [4])
49 | UGAGAU | 0.648 ± 0.051 | 1.887 ± 0.017 | 1.713 ± 0.0063 | 0.743 ± 0.033
50 | UGAGAG | 0.372 ± 0.012 | 1.87 ± 0.03 | 1.67 ± 0.04 | 0.364 ± 0.023
51 | GGAGUC | 0.764 ± 0.047 | 1.93 ± 0.042 | 1.885 ± 0.014 | 0.567 ± 0.047
52 | GGAGUG | 0.301 ± 0.025 | 1.85 ± 0.027 | 1.413 ± 0.014 | 0.7 ± 0.032
53 | AGCCCA | 0.0335 ± 0.1 | 1.923 ± 0.018 | 1.88 ± 0.025 | -0.145 ± 0.064
54 | AGCCCG | -0.024 ± 0.027 | 1.956 ± 0.0061 | 1.61 ± 0.087 | 0.388 ± 0.038
55 | AGCGUG | 0.152 ± 0.014 | 1.798 ± 0.014 | 1.37 ± 0.042 | 0.398 ± 0.032
56 | AGCGUC | 0.8 ± 0.033 | 1.971 ± 0.0074 | 1.966 ± 0.01 | 0.743 ± 0.075
57 | UGAGCG | 0.3069 ± 0.0029 | 1.9 ± 0.049 | 1.7 ± 0.043 | 0.323 ± 0.026
58 | UGAGCU | 0.136 ± 0.16 | 1.918 ± 0.018 | 1.904 ± 0.017 | -0.0419 ± 0.064
59 | UGAGCC | 0.846 ± 0.017 | 2.003 ± 0.02 | 1.94 ± 0.051 | 0.805 ± 0.11
60 | AGAGCG | 0.488 ± 0.026 | 1.81 ± 0.024 | 1.401 ± 0.002 | 0.431 ± 0.067
61 | GGCGUG | 0.107 ± 0.021 | 1.91 ± 0.088 | 1.52 ± 0.022 | 0.291 ± 0.076
62 | UGCCCA | 0.234 ± 0.013 | 1.944 ± 0.002 | 1.92 ± 0.043 | -0.0574 ± 0.058
63 | GGCAGU | 0.196 ± 0.14 | 1.98 ± 0.04 | 1.85 ± 0.046 | 0.205 ± 0.0051
64 | GGCAGC | 0.306 ± 0.06 | 1.921 ± 0.012 | 1.603 ± 0.0027 | 0.651 ± 0.043
65 | GGCAGA | 0.082 ± 0.022 | 1.921 ± 0.0091 | 1.51 ± 0.065 | 0.449 ± 0.062
66 | GGCGCA | 0.59 ± 0.026 | 1.977 ± 0.0052 | 1.893 ± 0.0039 | 0.6023 ± 0.0039
67 | UGAUCG | 0.52543 ± 0.00029 | 1.93 ± 0.02 | 1.81 ± 0.025 | 0.589 ± 0.045
68 | UGCCAC | 0.327 ± 0.019 | 1.94 ± 0.031 | 1.89 ± 0.02 | 0.42 ± 0.01
69 | UGCCAG | 0.421 ± 0.0089 | 1.9 ± 0.034 | 1.727 ± 0.0076 | 0.288 ± 0.093
70 | AGCCUG | 0.523 ± 0.04 | 1.92 ± 0.059 | 1.5724 ± 0.00079 | 0.67 ± 0.037
71 | AGCCUU | 0.466 ± 0.071 | 1.97 ± 0.022 | 1.933 ± 0.0025 | 0.317 ± 0.091
72 | GGCGGA | 0.416 ± 0.079 | 1.98 ± 0.043 | 1.837 ± 0.013 | 0.534 ± 0.03
